In the test the target is ALB蛋白(天然提取). The test is described as follows: AMC sensor, antibody immobilised at 10 ug/ml, ALB in gradient dilution in PBST.

B1: Anti-ALB-2G9mut2 (antibody, mouse IgG1, kappa, V domains shown)
VH: QVQLQQSGAELVRPGSSVKISCKASGYAFSNYWMNWVKQRPGQGLEWIGQIYPGDGDTYYNGRFKGKATITADKSPTTAYMQLSSLTSEDSAVYVCARGVLLGSFDYWGQGTTLTVSS
VL: QIVLTQSPAIMSASPGEKVTMTCSASSSVSYMHWYQQKSGTSPKRWIYDTSKLASGVPVRFSGSGSGTSYSLTIRSMEAEDAATYYCQQWGSNPLTFGAGTKLELKR
In turn, B1 came in with a Kd of 1.85 nM, a koff of 0.00241 s⁻¹ and a kon of 1.3e+06 M⁻¹ s⁻¹.

The Kd is the free concentration of one partner at which half of the binding sites on the other are occupied at equilibrium, for simple one-to-one binding. Usually koff stands for the first-order rate constant of dissociation. Low values mean a long-lived complex, high ones a short-lived complex. Broadly, the kon is the second-order rate constant of association.

The values are drawn from patent publication CN117088975A.
